Positions count from the first letter of the chain named. Read-outs that look alike come from different tables or passages of the source.
Key:
[1] = target: T1, SARS-CoV RBD (Sino Biological) (SARS-CoV, UniProt P59594 306-527); experiment: BLI
[2] = target: T2, SARS-CoV Spike protein (SARS-CoV, UniProt P59594 14-1255); experiment: cell-based or functional assay
[3] = target: T1, SARS-CoV RBD (Sino Biological)
[4] = target: T2, SARS-CoV Spike protein; experiment: cell-based or functional assay; remark: listed apart in the source
[5] = target: PANG/GX spike protein (PANG/GX); experiment: cell-based or functional assay
[6] = target: PANG/GD spike protein (PANG/GD); experiment: cell-based or functional assay
[7] = target: WIV-1 spike protein (on VSV pseudovirus) (WIV-1); experiment: cell-based or functional assay
[8] = target: T1, SARS-CoV RBD (Sino Biological); experiment: BLI; remark: listed apart in the source

B1: S2X259 variant antibody, VH SEQ ID NO 408 / VL SEQ ID NO 442 (antibody, V domains shown)
VH: QVQLVQSGAEVKKPGSSVKVSCKASGGIFNTYTISWVRQAPGQGLEWMGRIILMSGMANYAQKIQGRVTITADKSTSTAYMELTSLRSDDTAVYYCARGFNGNYYGWGDDDAFDISGQGTLVTVYS
VL: QTVLTQPPSVSGAPGQRVTISCTGSNSNIGAGYDVHWYQQLPGTAPKLLISGNSNRPSGVPDRFSGSKSGTSASLAITGLQAEDEADYYCQSYDSSLSGPNWVFGGGTKLTVL
In the case of B1, the Kd [1] is reported as 0.397 nM and the “neutralization IC50” value [2] is reported as 0.0531 mg/L.

B2: S2X259 variant antibody, VH SEQ ID NO 459 / VL SEQ ID NO 445 (antibody, V domains shown)
VH: B1 VH with M57K, S116W, Y125S
VL: B1 VL with S51V
With B2 the Kd [3] was 0.792 nM, the koff [3] was 0.000273 s⁻¹ and the kon [3] was 345000 M⁻¹ s⁻¹.

B3: S2X259 variant antibody, VH SEQ ID NO 460 / VL SEQ ID NO 445 (antibody, V domains shown)
VH: B1 VH with M54I, M57I, S116W, Y125S
VL: B1 VL with S51V
For B3, the Kd [3] was 1.59 nM, the koff [3] was 0.000621 s⁻¹ and the kon [3] was 391000 M⁻¹ s⁻¹.

B4: S2X259 variant antibody, VH SEQ ID NO 408 / VL SEQ ID NO 444 (antibody, V domains shown)
VH: B1 VH
VL: B1 VL with S51Y
B4 was tested, and the Kd [1] was 1.34 nM and the “neutralization IC50” value [2] was 0.0811 mg/L.

B5: S2X259 variant antibody, VH SEQ ID NO 408 / VL SEQ ID NO 445 (antibody, V domains shown)
VH: B1 VH
VL: B1 VL with S51V
With B5 the “neutralization IC50” value [4] was under 0.1 mg/L, the “neutralization IC50” value [5] was under 0.1 mg/L and the “neutralization IC50” value [6] was under 0.1 mg/L. The “neutralization IC50” value [7] was under 0.1 mg/L, the Kd [8] was 0.176 nM and the koff [8] was about 7.24e-05 s⁻¹. The kon [8] was 411000 M⁻¹ s⁻¹, the Kd [1] was 0.53 nM and the “neutralization IC50” value [2] was 0.036 mg/L.

B6: S2X259 variant antibody, VH SEQ ID NO 448 / VL SEQ ID NO 412 (antibody, V domains shown)
VH: B1 VH with N30S
VL: B1 VL with S51C
B6: no binding [1].

B7: S2X259 variant antibody, VH SEQ ID NO 458 / VL SEQ ID NO 445 (antibody, V domains shown)
VH: B1 VH with S116W, Y125S
VL: B1 VL with S51V
In the case of B7, the Kd [8] is reported as 0.455 nM, the koff [8] is reported as 0.000173 s⁻¹ and the kon [8] is reported as 380000 M⁻¹ s⁻¹.

B8: S2X259 variant antibody, VH SEQ ID NO 408 / VL SEQ ID NO 443 (antibody, V domains shown)
VH: B1 VH
VL: B1 VL with S51A
In the case of B8, the “neutralization IC50” value [4] is reported as under 0.1 mg/L, the “neutralization IC50” value [5] is reported as under 0.1 mg/L and the “neutralization IC50” value [6] is reported as under 0.1 mg/L. For the same binder, the “neutralization IC50” value [7] was under 0.1 mg/L, the Kd [1] was 0.521 nM and the “neutralization IC50” value [2] was 0.0353 mg/L.

B9: S2X259 variant antibody, VH SEQ ID NO 446 / VL SEQ ID NO 412 (antibody, V domains shown)
VH: B1 VH with M54I, M57I
VL: B1 VL with S51C
B9 gave a Kd [1] of 5.58 nM.
